{"source": "patent US20040161821A1", "about": "(COLD SPRING HARBOR LABORATORY, published 2004)", "binders": {"B1": {"name": "MBP.DEP-1(DA) (enzyme, not shown: large carriers; small tags and cut ends)", "chain": "RKKRKDAKNNEVSFSQIKPKKSKLIRVENFEAYFKKQQADSNCGFAEEYEDLKLVGISQPKYAAELAENRGKNRYNNVLPYDISRVKLSVQTHSTDDYINANYMPGYHSKKDFIATQGPLPNTLKDFWRMVWEKNVYAIIMLTKCVEQGRTKCEEYWPSKQAQDYGDITVAMTSEIVLPEWTIRDFTVKNIQTSESHPLRQFHFTSWPAHGVPDTTDLLINFRYLVRDYMKQSPPESPILVHCSAGVGRTGTFIAIDRLIYQIENENTVDVYGIVYDLRMHRPLMVQTEDQYVFLNQCVLDIVRSQKDSKVDLIYQNTTAMTIYENLAPVTTFGKTNGYIA", "notes": "also called DEP-1 substrate-trapping mutant (DA); DEP-1(DA) cytoplasmic domain fusion protein"}, "B2": {"name": "MBP.DEP-1 (enzyme, not shown: large carriers)", "chain": "B1 chain with A209D", "notes": "also called wild type DEP-1 (MBP-DEP-1); wildtype DEP-1 fusion protein"}, "B3": {"name": "full length DEP-1(CS) (protein)", "chain": "AGGTPSPIPDPSVATVATGENGITQISSTAESFHKQNGTGTPQVETNTSEDGESSGANDSLRTPEQGSNGTDGASQKTPSSTGPSPVFDIKAVSISPTNVILTWKSNDTAASEYKYVVKHKMENEKTITVVHQPWCNITGLRPATSYVFSITPGIGNETWGDPRVIKVITEPIPVSDLRVALTGVRKAALSWSNGNGTASCRVLLESIGSHEELTQDSRLQVNISDLKPGVQYNINPYLLQSNKTKGDPLGTEGGLDASNTERSRAGSPTAPVHDESLVGPVDPSSGQQSRDTEVLLVGLEPGTRYNATVYSQAANGTEGQPQAIEFRTNAIQVFDVTAVNISATSLTLIWKVSDNESSSNYTYKIHVAGETDSSNLNVSEPRAVIPGLRSSTFYNITVCPVLGDIEGTPGFLQVHTPPVPVSDFRVTVVSTTEIGLAWSSHDAESFQMHITQEGAGNSRVEITTNQSIIIGGLFPGTKYCFEIVPKGPNGTEGASRTVCNRTVPSAVFDIHVVYVTTTEMWLDWKSPDGASEYVYHLVIESKHGSNHTSTYDKAITLQGLIPGTLYNITISPEVDHVWGDPNSTAQYTRPSNVSNIDVSTNTTAATLSWQNFDDASPTYSYCLLIEKAGNSSNATQVVTDIGITDATVTELIPGSSYTVEIFAQVGDGIKSLEPGRKSFCTDPASMASFDCEVVPKEPALVLKWTCPPGANAGFELEVSSGAWNNATHLESCSSENGTEYRTEVTYLNFSTSYNISITTVSCGKMAAPTRNTCTTGITDPPPPDGSPNITSVSHNSVKVKFSGFEASHGPIKAYAVILTTGEAGHPSADVLKYTYDDFKKGASDTYVTYLIRTEEKGRSQSLSEVLKYEIDVGNESTTLGYYNGKLEPLGSYRACVAGFTNITFHPQNKGLIDGAESYVSFSRYSDAVSLPQDPGVICGAVFGCIFGALVIVTVGGFIFWRKKRKDAKNNEVSFSQIKPKKSKLIRVENFEAYFKKQQADSNCGFAEEYEDLKLVGISQPKYAAELAENRGKNRYNNVLPYDISRVKLSVQTHSTDDYINANYMPGYHSKKDFIATQGPLPNTLKDFWRMVWEKNVYAIIMLTKCVEQGRTKCEEYWPSKQAQDYGDITVAMTSEIVLPEWTIRDFTVKNIQTSESHPLRQFHFTSWPDHGVPDTTDLLINFRYLVRDYMKQSPPESPILVHSSAGVGRTGTFIAIDRLIYQIENENTVDVYGIVYDLRMHRPLMVQTEDQYVFLNQCVLDIVRSQKDSKVDLIYQNTTAMTIYENLAPVTTFGKTNGYIA"}, "B4": {"name": "full length wild type DEP-1 (protein)", "chain": "B3 chain with S1204C"}}, "key": {"E-cadherin": {"target": "T1, E-cadherin (human, UniProt P12830 155-882)", "T1 construct": "Endogenous protein in lysate of pervanadate-treated T-47D cells", "T1 sequence (looked up)": "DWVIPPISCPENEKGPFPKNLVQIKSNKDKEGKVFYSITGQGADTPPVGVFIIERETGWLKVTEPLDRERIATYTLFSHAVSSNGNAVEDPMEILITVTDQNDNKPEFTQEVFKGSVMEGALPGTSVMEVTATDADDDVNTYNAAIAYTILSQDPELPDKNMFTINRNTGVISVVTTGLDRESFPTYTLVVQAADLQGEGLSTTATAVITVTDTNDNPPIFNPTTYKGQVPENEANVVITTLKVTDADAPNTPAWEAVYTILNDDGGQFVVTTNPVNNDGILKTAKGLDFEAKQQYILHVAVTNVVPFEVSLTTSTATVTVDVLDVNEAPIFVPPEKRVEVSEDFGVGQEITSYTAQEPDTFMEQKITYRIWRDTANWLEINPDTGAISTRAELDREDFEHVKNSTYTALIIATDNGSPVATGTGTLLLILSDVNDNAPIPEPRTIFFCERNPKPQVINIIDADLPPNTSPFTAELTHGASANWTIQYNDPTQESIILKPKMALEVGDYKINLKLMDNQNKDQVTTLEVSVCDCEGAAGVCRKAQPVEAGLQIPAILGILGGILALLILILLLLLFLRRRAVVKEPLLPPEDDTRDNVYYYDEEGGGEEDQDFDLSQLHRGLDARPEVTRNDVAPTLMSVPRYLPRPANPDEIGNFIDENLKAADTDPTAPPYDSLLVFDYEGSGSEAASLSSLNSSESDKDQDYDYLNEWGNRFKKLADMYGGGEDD", "assay": "amylose pull-down from pervanadate-treated T-47D lysate, anti-E-cadherin immunoblot", "experimental": "(§1) Substrate trapping—Prior to lysis, T-47D and T-47D/Met cells were treated with 50 μM pervanadate for 20 minutes, whereas MDA-MB-231 cells were treated with 100 μM pervanadate for 20 minutes. Cells were rinsed with PBS and lysed in 1% NP-40 buffer (1% NP-40,150 mM NaCl, 20 mM HEPES pH7.5, 1 mM EDTA, 5 μg/ml aprotinin, 5 μg/ml leupeptin, 1 mM benzamidine). For trapping experiments in vitro, the lysis buffer also contained 5 mM iodoacetic acid to inhibit cellular PTPs irreversibly. After incubation on ice for 5 minutes, dithiothreitol was added to a final concentration of 10 mM to inactivate any unreacted iodoacetic acid. Insoluble material was removed by centrifugation. […] Lysates and fusion proteins were incubated at 4° C. for 2 hours and then washed extensively with 1% NP-40 buffer. Tyrosine phosphorylated proteins were immunoprecipitated using 0.1 mg T-47D cell lysate and a combination of 5 μl each of anti-phosphotyrosine antibodies PT-66 and 4G10. Lysate and antibodies were incubated at 4° C. for 2 hours and washed extensively with 1% NP-40 buffer."}, "Met, the HGF/SF receptor": {"target": "T2, Met, the HGF/SF receptor (Homo sapiens (Human), UniProt P08581 25-1390, tyrosine phosphorylated (cells treated with pervanadate); sites not stated)", "T2 construct": "also called HGF-R; HGF/SF receptor Met", "assay": "amylose pull-down from pervanadate-treated T-47D/Met lysate, anti-Met immunoblot", "experimental": "as §1"}, "[1]": {"target": "T3, chimeric receptor CSF-MET, P07333", "T3 chain": "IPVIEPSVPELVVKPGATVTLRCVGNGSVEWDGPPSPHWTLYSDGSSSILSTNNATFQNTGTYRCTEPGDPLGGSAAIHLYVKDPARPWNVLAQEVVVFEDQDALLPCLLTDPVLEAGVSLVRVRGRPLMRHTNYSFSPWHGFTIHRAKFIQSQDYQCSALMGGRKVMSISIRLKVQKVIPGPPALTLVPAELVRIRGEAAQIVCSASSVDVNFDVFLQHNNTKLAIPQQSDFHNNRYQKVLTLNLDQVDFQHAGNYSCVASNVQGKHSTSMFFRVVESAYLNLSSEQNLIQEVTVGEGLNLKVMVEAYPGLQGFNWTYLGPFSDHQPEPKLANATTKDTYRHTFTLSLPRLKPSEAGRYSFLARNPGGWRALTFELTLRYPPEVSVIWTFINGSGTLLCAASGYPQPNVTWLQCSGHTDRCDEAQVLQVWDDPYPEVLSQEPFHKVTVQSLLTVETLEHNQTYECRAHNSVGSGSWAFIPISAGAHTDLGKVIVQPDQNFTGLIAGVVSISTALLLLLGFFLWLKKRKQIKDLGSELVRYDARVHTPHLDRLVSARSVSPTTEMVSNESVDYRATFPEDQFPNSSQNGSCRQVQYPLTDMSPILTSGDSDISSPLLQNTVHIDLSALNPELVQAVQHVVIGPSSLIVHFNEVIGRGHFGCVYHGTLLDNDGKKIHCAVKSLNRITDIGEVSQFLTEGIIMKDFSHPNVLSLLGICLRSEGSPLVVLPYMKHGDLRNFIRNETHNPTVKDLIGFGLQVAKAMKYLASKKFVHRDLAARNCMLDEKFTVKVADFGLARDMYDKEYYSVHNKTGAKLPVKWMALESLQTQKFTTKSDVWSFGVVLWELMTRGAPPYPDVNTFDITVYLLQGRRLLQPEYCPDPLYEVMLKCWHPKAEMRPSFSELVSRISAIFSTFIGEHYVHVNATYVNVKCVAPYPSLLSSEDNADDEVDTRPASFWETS"}}, "note": "Numbering of substitutions follows the chain as printed.", "data": [{"binder": "B1", "values": [{"measurement": "binding result", "setting": "E-cadherin", "result": "no binding (tested: 1 µg fusion protein to 500 µg lysate)"}]}, {"binder": "B2", "values": [{"measurement": "binding result", "setting": "Met, the HGF/SF receptor", "result": "no binding (tested: 1 µg fusion protein to 500 µg lysate)"}]}, {"binder": "B3", "values": [{"measurement": "phosphorylation of Met (phospho-specific antibodies)", "setting": "[1]", "result": "no effect on phosphorylation of Met was observed with the expression of DEP-1(CS)"}, {"measurement": "phosphorylation of Tyr^1349 of Met (phospho-specific antibody)", "setting": "[1]", "result": "no change in the phosphorylation level of Tyr^1349 was observed in the presence of DEP-1(CS)"}]}, {"binder": "B4", "values": [{"measurement": "phosphorylation of Tyr^1230, Tyr^1234 and Tyr^1235 of Met (phospho-specific antibodies)", "setting": "[1]", "result": "a gradual decrease in the level of phosphorylation of the activation loop tyrosine residues was observed with increasing expression of wild type DEP-1"}, {"measurement": "phosphorylation of Tyr^1349 of Met (phospho-specific antibody)", "setting": "[1]", "result": "Tyr^1349 was nearly completely dephosphorylated in the presence of low levels of DEP-1"}, {"measurement": "phosphorylation of Tyr^1365 of Met (phospho-specific antibody)", "setting": "[1]", "result": "Tyr^1365 was nearly completely dephosphorylated in the presence of low levels of DEP-1"}]}]}
